Experiments:
[1] = target: T1, chalcone synthase-like A (ChSA)
T1 chain: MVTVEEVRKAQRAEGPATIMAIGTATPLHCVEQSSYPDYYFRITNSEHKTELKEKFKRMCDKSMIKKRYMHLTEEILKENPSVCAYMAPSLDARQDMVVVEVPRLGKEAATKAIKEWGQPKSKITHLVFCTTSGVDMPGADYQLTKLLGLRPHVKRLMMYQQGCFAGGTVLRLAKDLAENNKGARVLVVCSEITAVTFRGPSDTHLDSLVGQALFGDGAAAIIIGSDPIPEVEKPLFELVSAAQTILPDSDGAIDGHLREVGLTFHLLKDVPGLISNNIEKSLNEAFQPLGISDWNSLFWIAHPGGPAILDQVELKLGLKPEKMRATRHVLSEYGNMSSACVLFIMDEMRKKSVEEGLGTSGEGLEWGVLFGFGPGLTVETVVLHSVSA

[2] = target: T2, chalcone synthase-like D (ChSD)
T2 chain: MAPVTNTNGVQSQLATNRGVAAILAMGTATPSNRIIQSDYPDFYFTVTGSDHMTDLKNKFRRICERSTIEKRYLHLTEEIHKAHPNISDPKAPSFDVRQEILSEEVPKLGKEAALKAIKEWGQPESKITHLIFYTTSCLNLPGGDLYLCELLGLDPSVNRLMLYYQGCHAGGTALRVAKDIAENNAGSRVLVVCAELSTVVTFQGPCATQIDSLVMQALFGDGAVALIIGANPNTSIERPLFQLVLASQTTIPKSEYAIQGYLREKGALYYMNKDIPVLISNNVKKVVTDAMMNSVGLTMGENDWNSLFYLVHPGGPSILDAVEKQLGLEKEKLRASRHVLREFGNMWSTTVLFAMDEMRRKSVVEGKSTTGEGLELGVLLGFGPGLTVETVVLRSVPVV

[3] = target: T3, chalcone synthase-like B (ChSB)
T3 chain: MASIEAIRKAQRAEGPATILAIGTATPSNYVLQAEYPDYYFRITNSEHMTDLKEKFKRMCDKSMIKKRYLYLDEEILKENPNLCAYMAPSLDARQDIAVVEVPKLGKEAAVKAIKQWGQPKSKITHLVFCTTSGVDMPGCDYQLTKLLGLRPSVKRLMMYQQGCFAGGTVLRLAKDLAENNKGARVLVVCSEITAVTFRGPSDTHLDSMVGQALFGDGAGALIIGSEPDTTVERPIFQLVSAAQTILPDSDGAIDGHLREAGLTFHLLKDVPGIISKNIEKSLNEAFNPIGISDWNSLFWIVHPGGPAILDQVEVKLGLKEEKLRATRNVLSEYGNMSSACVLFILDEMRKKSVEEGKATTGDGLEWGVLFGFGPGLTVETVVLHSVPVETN

[4] = target: T4, chalcone synthase-like F (ChSF)
T4 chain: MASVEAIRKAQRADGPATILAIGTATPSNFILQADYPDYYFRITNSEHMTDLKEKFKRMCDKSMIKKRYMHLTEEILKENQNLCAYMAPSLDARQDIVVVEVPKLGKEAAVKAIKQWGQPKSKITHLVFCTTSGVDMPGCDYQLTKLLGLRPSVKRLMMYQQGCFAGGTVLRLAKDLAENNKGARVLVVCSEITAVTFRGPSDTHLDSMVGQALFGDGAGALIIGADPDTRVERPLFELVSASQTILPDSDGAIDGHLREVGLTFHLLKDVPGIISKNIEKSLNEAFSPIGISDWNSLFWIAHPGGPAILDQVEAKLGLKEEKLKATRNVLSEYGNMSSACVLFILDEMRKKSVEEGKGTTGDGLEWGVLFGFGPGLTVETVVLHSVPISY

[5] = target: T5, chalcone synthase-like C (ChSC)
T5 chain: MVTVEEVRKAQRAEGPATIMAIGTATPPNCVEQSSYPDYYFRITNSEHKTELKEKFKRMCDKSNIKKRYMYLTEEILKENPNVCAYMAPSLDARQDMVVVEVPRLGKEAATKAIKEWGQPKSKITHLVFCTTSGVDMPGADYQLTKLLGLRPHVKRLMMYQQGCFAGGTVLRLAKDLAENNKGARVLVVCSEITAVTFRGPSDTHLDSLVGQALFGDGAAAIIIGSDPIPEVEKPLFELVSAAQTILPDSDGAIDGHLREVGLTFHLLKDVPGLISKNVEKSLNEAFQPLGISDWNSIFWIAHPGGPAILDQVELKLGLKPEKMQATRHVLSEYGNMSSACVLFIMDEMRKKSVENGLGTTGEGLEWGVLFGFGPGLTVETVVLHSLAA

B1: chalcone synthase-like E (ChSE) (protein)
chain: MGSLDQDFQPNQVPTIRADAATVLAIGTANPPNCIPQAEFADFYFRVTNSNHMTDLKKKFKRICEKSSIKKRYVHLTEKILNENPNICTFKEPSLTARQNIATEEIPKLGKEAALKAIEEWGRPKSEITHLVFCTIGGAEMPSADYQLVHLLGLNPSVKRFMLYYQGCFAGGSVLRLAKDLAENNVGARVLVVCAEVSIPYFHGPSEAHFDSNLIWQMLCGDGAGAAIVGSNPRKLIERPLFQLVSASQTIVPNSEGAIKGTLSEMGIIFNLVDKVPVLIGNNIENCLEEAFGSLGISNWNSLFWVAHPGGPAILNQIEEKLKLKEEKLKASRHVLSEYGNMSSACVFFILDEMRRRSKEEGKITTGDGLEWGVLFGFGPGLTVETIVLRSISTNEAH
levels of product (QA-TriR-FRX-C9) in N. benthamiana leaves, ChS pairs co-infiltrated [1]: Pairing ChSE with ChSA, ChSC, CHSD or CHSF increased the levels of product made compared to either ChSE by itself or to the combination of all ChSs but ChSE | QA-TriR-FRX-C9 amounts in N. benthamiana leaves, triads of ChSs co-infiltrated [2]: the triads containing ChSD consistently had higher QA-TriR-FRX-C9 amounts than those without | levels of product (QA-TriR-FRX-C9) in N. benthamiana leaves, ChS pairs co-infiltrated [2]: Pairing ChSE with ChSA, ChSC, CHSD or CHSF increased the levels of product made compared to either ChSE by itself or to the combination of all ChSs but ChSE | levels of product (QA-TriR-FRX-C9) in N. benthamiana leaves, ChS pairs co-infiltrated (repeat experiment) [3]: In a repeat experiment, ChSB paired with ChSE also led to a noticeable increase of product | levels of product (QA-TriR-FRX-C9) in N. benthamiana leaves, ChS pairs co-infiltrated [4]: Pairing ChSE with ChSA, ChSC, CHSD or CHSF increased the levels of product made compared to either ChSE by itself or to the combination of all ChSs but ChSE | levels of QA-TriR-FRX-C9 in N. benthamiana leaves (drop-out of one of six co-infiltrated ChS candidates) (other ChS candidates): The levels of QA-TriR-FRX-C9 were not affected except when ChSE was absent | levels of product (QA-TriR-FRX-C9) in N. benthamiana leaves, ChS pairs co-infiltrated [5]: Pairing ChSE with ChSA, ChSC, CHSD or CHSF increased the levels of product made compared to either ChSE by itself or to the combination of all ChSs but ChSE
